Assay [1] addresses recombinant human FcγRI (human) (UniProt P12314). The assay can be described thus: SPR. (SPR reads the build-up and loss of mass on a sensor chip optically.)
Assay [2] has as its target recombinant human FcγRIIIa (human) (UniProt P08637). The assay can be described thus: SPR; F158 allotype.
The target in assay [3] is recombinant human FcγRIIa (human) (UniProt P12318). The assay can be described thus: SPR; R131 allotype.
The target in assay [4] is rituximab hIgG1 μtp pre-formed hexamer (human). Kind of assay: negative stain electron microscopy; antibody 10 μg/ml on grids, 2% uranyl acetate, x80,000.
Assay [5] shares this target. Kind of assay: SEC-MALS; 50 μg on Superdex 200 increase 10/300, PBS pH 7.4, 0.5 ml/minute; absolute molecular weight. Background: In gel filtration, larger molecules generally elute earlier.
Assay [6] shares this target. The assay can be described thus: SEC; SE-UHPLC after Protein A purification, against molecular weight controls; ACQUITY BEH200, 200 mM phosphate pH 7.0, 1 µg injected.

Sequence of UniProt P12314 (P12314 16-292): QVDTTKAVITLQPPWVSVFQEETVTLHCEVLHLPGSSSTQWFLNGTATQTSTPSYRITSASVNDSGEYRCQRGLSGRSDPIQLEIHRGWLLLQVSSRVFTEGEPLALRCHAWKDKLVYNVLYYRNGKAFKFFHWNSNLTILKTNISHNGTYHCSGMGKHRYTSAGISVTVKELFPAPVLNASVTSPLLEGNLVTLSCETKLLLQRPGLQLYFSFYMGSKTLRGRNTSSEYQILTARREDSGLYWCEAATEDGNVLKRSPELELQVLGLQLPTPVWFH
Sequence of UniProt P08637 (P08637 17-208): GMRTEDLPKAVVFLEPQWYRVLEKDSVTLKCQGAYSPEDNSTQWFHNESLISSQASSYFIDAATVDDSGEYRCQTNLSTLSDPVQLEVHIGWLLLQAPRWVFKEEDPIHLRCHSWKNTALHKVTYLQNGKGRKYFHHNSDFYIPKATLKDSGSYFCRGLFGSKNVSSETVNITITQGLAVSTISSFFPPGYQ
Sequence of UniProt P12318 (P12318 34-217): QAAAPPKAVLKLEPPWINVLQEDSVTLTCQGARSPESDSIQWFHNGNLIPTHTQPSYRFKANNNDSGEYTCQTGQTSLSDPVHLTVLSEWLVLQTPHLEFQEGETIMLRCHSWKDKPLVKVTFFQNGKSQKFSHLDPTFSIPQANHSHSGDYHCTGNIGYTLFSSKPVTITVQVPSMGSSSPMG

As a reminder, the Kd is a measure of binding affinity in units of concentration. On to rituximab hIgG1 wild-type, for which the Kd in assay [1] stood at 4.36 nM; in assay [2], 719 nM; in assay [3], 935 nM.

In general, stoichiometry N refers to a count of units in the complex or per binding partner. With “rituximab hIgG1 μtp pre-formed hexamer (antibody)”, the stoichiometry N in assay [4], in assay [5] and in assay [6] was 6 throughout.

rituximab hIgG1 μtp pre-formed hexamer: the results for the equilibrium dissociation constant (Kd) in assay [1], in assay [2] and in assay [3] were 7.53 nM, 410 nM and 964 nM, respectively.

The values are drawn from PMC8413284.
